In experiment [1] the target is FITC tagged AAV Po1 capsid monopartite NLS peptide (residues 143-165) (porcine adeno-associated virus, strain Po1). Kind of experiment: fluorescence polarisation.
The target of experiment [2] is FITC tagged AAV Po1 capsid bipartite NLS peptide (residues 119-158) (porcine adeno-associated virus, strain Po1). As to the kind of experiment: fluorescence polarisation.

Data on four substances can be found in article PMC9964314.

For the substance “Human importin α1 lacking the IBB domain (hImpα1DIBB) (domain or fragment)”, the Kd is 556 nM in experiment [1] and 0.382 nM in experiment [2].
Consider “Human importin α3 lacking the IBB domain (hImpα3DIBB) (domain or fragment)”, for which the Kd in experiment [1] was found to be 3480 nM; in experiment [2] it was 0.0455 nM.
The corresponding values for “Human importin α5 lacking the IBB domain (hImp5DIBB) (domain or fragment)” are 144 nM and 0.14 nM.
As for “Human importin α7 lacking the IBB domain (hImpα7DIBB) (domain or fragment)”, the Kd in experiment [1] worked out at 294 nM; in experiment [2] it was 0.29 nM.
